Experimental findings from US8748176B2, “Generation of choroid plexus epithelial cells from human embryonic stem cells” (The Regents of the University of California, priority 2011, dated 2014) are described below.

The test system of one assay is SFEBq-derived vesicles. As to the kind of experiment: CPEC vesicle secretion assay with secretion inhibitors, mESC-derived vesicles. The format is cell-based, mouse. To be noted: 100 uM acetazolamide and 5 mM ouabain together, 24 hrs; recovered after removal. The text has this: (§1) To assess functional activity, we adopted a well-established in vitro assay for CPEC vesicle formation and secretion (33, 34). As described previously using this assay, primary dissociated CPECs on Matrigel self-assembled into hollow vesicles that grew in diameter, collapsed after treatment with the secretion inhibitors acetazolamide and ouabain, and regrew upon inhibitor withdrawal (FIG. 5A-G). Indistinguishable vesicles formed from dissociated SFEBq aggregates treated with BMP4 (n=6/6 independent cultures), but not from controls (n=0/6; FIGS. 5H,I). Like the primary CPEC vesicles, the SFEBq-derived vesicles were Aqp1 positive (FIG. 5I, inset), grew (FIGS. 5J,K), collapsed after exposure to the secretion inhibitors (FIG. 5L), and recovered after inhibitor removal (FIG. 5M).
(§2) Primary CP cells or SFEBq-derived cells were cultured on Matrigel as previously described (33, 34). Briefly, Matrigel (BD Biosciences, San Jose, Calif.) was mixed 1:1 with DMEM (Invitrogen) and incubated for at least 30 min at 37 C. BMP4-treated SFEBq aggregates at 12 DIV were dissociated with TrypLE Express (Invitrogen) and plated at 500,000 to 600,000 cells/well onto Matrigel-coated 6-well plates in DMEM with 10% FBS, 2 mM L-glutamine, NEAA, and sodium pyruvate (Invitrogen). […]

Another assay relates to primary CPEC vesicles. Description: CPEC vesicle secretion assay with secretion inhibitors, primary CPECs. Type of assay: cell-based, mouse. To be noted: 100 uM acetazolamide and 5 mM ouabain together, 24 hrs; regrew upon withdrawal.
Source text: as §1, §2

The test system of assay [1] is dissociated SFEBq aggregates. As to the kind of experiment: in vitro assay for CPEC vesicle formation on Matrigel. The format is cell-based, mouse. To be noted: SFEBq aggregates treated with 50 ng/ml BMP4; controls n=0/6.
Source text: as §1, §2

Another assay deals with H1-derived NRs. Description: BMP4 addition to hESC-derived neural rosettes (NR method). To be noted: BMP4 0.5-15 ng/ml, evident by 7 DIV after addition. The format is cell-based, human. The source says: We then attempted to derive iCPECs from human ESCs using an analogous approach. To first generate NECs, we used the Zhang et al. method (35) to generate neural rosettes (NRs) (FIGS. 6A,B) with predominant forebrain character (30). […] Eventually, the hESC-derived vesicles transformed into flat epithelial sheets (FIG. 6D), and occasional multivesicular bodies also formed (FIG. 6E). […] H9 cultures yielded similar morphologic changes, although NR-to-vesicle transformations were less prominent.
1) Neural rosette (NR) method. Neural induction with NR formation was adapted from Zhang et al. (35). Human ESC colonies were partially dissociated with 1 mg/ml dispase, then plated in suspension to form embryoid bodies (EBs) for 3 DIV. EBs were then transferred to suspension culture with neural induction media—DMEM/F12 (Invitrogen), N2 (Invitrogen), NEAA, heparin (2 ug/ml) and FGF2 (20 ng/ml)—for another two days. On 6 DIV, EBs were transferred to adherent PDL/laminin-coated plates with neural induction media, which was fully replaced every other day. On 16 DIV, media was fully replaced with neural induction media containing BMP4 (0.5-15 ng/ml), with full media replacement every other day. […] The SFEBq media was changed every 3 days, with or without fresh BMP4, and the culture was analyzed after 1-2 weeks of BMP4 incubation, with greater CPEC differentiation detected at 2 weeks.

For the next assay, the system named is mESC-derived NECs. Description: BMP4 treatment of mESC-derived SFEBq aggregates, CPEC/NEC marker RT-qPCR. Type of assay: cell-based, mouse. As for the experimental part: Significant and similar levels of CPEC gene induction were also seen with one-time BMP4 addition alone (data not shown). These findings indicate a relatively short and early critical period in culture for BMP4-mediated CPEC marker induction, which occurs at the expense of NEC markers.
(§3) These were performed as described (21, 26) on a StepOne Plus (Applied Biosystems, Carlsbad, Calif.) using 18S normalization and Excel for graphing and statistics (two-tailed t-tests assuming equal variance). All primers and amplicons were validated as described (21, 26). All studies represent n>2 biological replicates per condition, unless otherwise specified.
Neural differentiation was adapted from Eiraku et al. (29). Briefly, mESCs were passaged for two hours onto gelatin-coated plates to reduce MEF load, dissociated to single cells using trypsin, then plated at varying concentrations onto ultra-low attachment U-bottom 96-well plates (Corning #7007, Lowell, Mass.) to form SFEBq aggregates. Differentiation media (29) was replaced initially, then every other day, with fresh media containing 0.5 to 50 ng/ml BMP4 (R&D Systems). Neural rosette (NR) cultures were based on the Elkabetz et al. method (30). […] For the combined SFEBq/NR method, we first generated SFEBq aggregates for 5 DIV, then transferred aggregates into adherent mNR conditions for another 2 DIV (7 DIV total).
In general terms: In qPCR the cycle at which signal appears reflects the starting amount.

The next assay relates to H9 hESC SFEBq aggregates. As to the kind of experiment: BMP4 applied to H9 hESC SFEBq aggregates, CPEC marker expression. The format is cell-based, human. To be noted: BMP4 0-15 ng/ml, 18 to 24-DIV aggregates. On the procedure:
We also generated human CPECs by applying the SFEBq neural induction method to human ESCs (H9 line). H9 hESCs were optimized for aggregate size and assessed for NEC gene expression over time. 9000-cell SFEBq aggregates were optimal, and NEC expression plateaued by 18-24 DIV. BMP4 (0-15 ng/ml) was applied to 12-, 15-, 18-, 21-, and 24-DIV aggregates. […] Based on RT-qPCR studies, peak expression of NEC markers, but not radial glial markers, coincided with the 21 DIV aggregates.
1) Neural rosette (NR) method. Neural induction with NR formation was adapted from Zhang et al. (35). Human ESC colonies were partially dissociated with 1 mg/ml dispase, then plated in suspension to form embryoid bodies (EBs) for 3 DIV. EBs were then transferred to suspension culture with neural induction media—DMEM/F12 (Invitrogen), N2 (Invitrogen), NEAA, heparin (2 ug/ml) and FGF2 (20 ng/ml)—for another two days. On 6 DIV, EBs were transferred to adherent PDL/laminin-coated plates with neural induction media, which was fully replaced every other day. On 16 DIV, media was fully replaced with neural induction media containing BMP4 (0.5-15 ng/ml), with full media replacement every other day. 2) Aggregate (SFEBq) method. […] The SFEBq media was changed every 3 days, with or without fresh BMP4, and the culture was analyzed after 1-2 weeks of BMP4 incubation, with greater CPEC differentiation detected at 2 weeks.

The test system of assay [2] is mESC-derived NECs plated as adherent monolayers. As to the kind of experiment: combined aggregation-monolayer system, CPEC markers by RT-qPCR and immunocytochemistry. The format is cell-based, mouse. As for the experimental part: In addition to direct BMP4 applications to SFEBq aggregates, we also dissociated SFEBq aggregates into single cells after 5DIV (i.e. after they had differentiated into NECs), plated them as adherent monolayers onto PDL-laminin-coated plates at 300,000-600,000 cells, then added BMP4 (0.5-50 ng/ml BMP4) for another 5 days (10DIV total). This combined aggregation-monolayer system allows all NECs to experience the same BMP4 concentration in culture. […] The optimal concentration of BMP4 is probably between 0.5 ng/ml-50 ng/ml BMP4 in this system.
as §3

For the molecule `C[C@@H]1O[C@@H](O[C@H]2C[C@@H](O)[C@]3(CO)[C@H]4[C@H](O)C[C@]5(C)[C@@H](C6=CC(=O)OC6)CC[C@]5(O)[C@@H]4CC[C@]3(O)C2)[C@H](O)[C@H](O)[C@H]1O` [ouabain], the “vesicle response to secretion inhibitors” value in the assay on SFEBq-derived vesicles and in the assay on primary CPEC vesicles was “collapsed” throughout.

As for `CC(=O)Nc1nnc(S(N)(=O)=O)s1` [acetazolamide], the “vesicle response to secretion inhibitors” value with SFEBq-derived vesicles and in the assay on primary CPEC vesicles was “collapsed” throughout.

B1: BMP4: Bone Morphogenetic Protein 4 (GeneID: 652), recombinant, commercially available (R&D Systems) (protein, UniProt P12644 293-408, looked up)
Bone morphogenetic protein 4: SPKHHSQRARKKNKNCRRHSLYVDFSDVGWNDWIVAPPGYQAFYCHGDCPFPLADHLNSTNHAIVQTLVNSVNSSIPKACCVPTELSAISMLYLDEYDKVVLKNYQEMVVEGCGCR
Regarding B1, the “independent cultures forming vesicles on Matrigel” value in assay [1] is reported as 6/6. Also, the “morphologic transformation of neural rosettes” value in the assay with H1-derived NRs is recorded as “transformed directly into expanding vesicular structures”. In the assay on mESC-derived NECs (5-day aggregates, BMP4 5 or 50 ng/ml for 7 DIV), the “CPEC markers Ttr, Lmx1a, and Msx1 induction” value was “markedly induced”. The “CPEC markers Aqp1 and Cldn1 induction” value with mESC-derived NECs (5-day aggregates, BMP4 concentration-dependent) is recorded as “strongly induced”. The “NEC markers Sox1 and Foxg1 expression” value in the assay on mESC-derived NECs (with increasing BMP4 concentration) is given as “downregulated”. In addition, in the assay with H9 hESC SFEBq aggregates, the “CPEC markers Ttr, Otx2, and Lmx1a expression” value is listed as “upregulated”. In addition, the “CPEC markers by RT-qPCR at 50 ng/ml” value in assay [2] (50 ng/ml BMP4) was “down-regulation of CPEC markers”. For the same molecule, the “optimal BMP4 concentration for CPEC marker upregulation” value in assay [2] (0.5-50 ng/ml BMP4 for 5 days, 10DIV total) worked out at 5 ng/mL.
